Reference: patent US20260295010 (published 2026)

B1: IL-12p70 D162A (protein)
chain 1: MIWELKKDVYVVELDWYPDAPGEMVVLTCDTPEEDGITWTLDQSSEVLGSGKTLTIQVKEFGDAGQYTCHKGGEVLSHSLLLLHKKEDGIWSTDILKDQKEPKNKTFLRCEAKNYSGRFTCWWLTTISTDLTFSVKSSRGSSDPQGVTCGAATLSAERVRGANKEYEYSVECQEDSACPAAEESLPIEVMVDAVHKLKYENYTSSFFIRDIIKPDPPKNLQLKPLKNSRQVEVSWEYPDTWSTPHSYFSLTFSVQVQGKSKREKKDRVFTDKTSATVICRKNASISVRAQDRYYSSSWSEWASVPCSGGGSHHHHHH
chain 2: MRNLPVATPDPGMFPSLHHSQNLLRAVSNMLQKARQTLEFYPCTSEEIDHEDITKDKTSTVEACLPLELTKNESCLNSRETSFITNGSSLASRKTSFMMALCLSSIYEDLKMYQVEFKTMNAKLLMDPKRQIFLDQNMLAVIDELMQALNFNSETVPQKSSLEEPDFYKTKIKLCILLHAFRIRAVTIDRVMSYLNAS
B2: IL-12p70 Q43A (protein)
chain 1: MIWELKKDVYVVELDWYPDAPGEMVVLTCDTPEEDGITWTLDASSEVLGSGKTLTIQVKEFGDAGQYTCHKGGEVLSHSLLLLHKKEDGIWSTDILKDQKEPKNKTFLRCEAKNYSGRFTCWWLTTISTDLTFSVKSSRGSSDPQGVTCGAATLSAERVRGDNKEYEYSVECQEDSACPAAEESLPIEVMVDAVHKLKYENYTSSFFIRDIIKPDPPKNLQLKPLKNSRQVEVSWEYPDTWSTPHSYFSLTFSVQVQGKSKREKKDRVFTDKTSATVICRKNASISVRAQDRYYSSSWSEWASVPCSGGGSHHHHHH
chain 2: MRNLPVATPDPGMFPSLHHSQNLLRAVSNMLQKARQTLEFYPCTSEEIDHEDITKDKTSTVEACLPLELTKNESCLNSRETSFITNGSSLASRKTSFMMALCLSSIYEDLKMYQVEFKTMNAKLLMDPKRQIFLDQNMLAVIDELMQALNFNSETVPQKSSLEEPDFYKTKIKLCILLHAFRIRAVTIDRVMSYLNAS
B3: IL-12p70 D162K (protein)
chain 1: MIWELKKDVYVVELDWYPDAPGEMVVLTCDTPEEDGITWTLDQSSEVLGSGKTLTIQVKEFGDAGQYTCHKGGEVLSHSLLLLHKKEDGIWSTDILKDQKEPKNKTFLRCEAKNYSGRFTCWWLTTISTDLTFSVKSSRGSSDPQGVTCGAATLSAERVRGKNKEYEYSVECQEDSACPAAEESLPIEVMVDAVHKLKYENYTSSFFIRDIIKPDPPKNLQLKPLKNSRQVEVSWEYPDTWSTPHSYFSLTFSVQVQGKSKREKKDRVFTDKTSATVICRKNASISVRAQDRYYSSSWSEWASVPCSGGGSHHHHHH
chain 2: MRNLPVATPDPGMFPSLHHSQNLLRAVSNMLQKARQTLEFYPCTSEEIDHEDITKDKTSTVEACLPLELTKNESCLNSRETSFITNGSSLASRKTSFMMALCLSSIYEDLKMYQVEFKTMNAKLLMDPKRQIFLDQNMLAVIDELMQALNFNSETVPQKSSLEEPDFYKTKIKLCILLHAFRIRAVTIDRVMSYLNAS
B4: IL-12p70 S44A (protein)
chain 1: MIWELKKDVYVVELDWYPDAPGEMVVLTCDTPEEDGITWTLDQASEVLGSGKTLTIQVKEFGDAGQYTCHKGGEVLSHSLLLLHKKEDGIWSTDILKDQKEPKNKTFLRCEAKNYSGRFTCWWLTTISTDLTFSVKSSRGSSDPQGVTCGAATLSAERVRGDNKEYEYSVECQEDSACPAAEESLPIEVMVDAVHKLKYENYTSSFFIRDIIKPDPPKNLQLKPLKNSRQVEVSWEYPDTWSTPHSYFSLTFSVQVQGKSKREKKDRVFTDKTSATVICRKNASISVRAQDRYYSSSWSEWASVPCSGGGSHHHHHH
chain 2: MRNLPVATPDPGMFPSLHHSQNLLRAVSNMLQKARQTLEFYPCTSEEIDHEDITKDKTSTVEACLPLELTKNESCLNSRETSFITNGSSLASRKTSFMMALCLSSIYEDLKMYQVEFKTMNAKLLMDPKRQIFLDQNMLAVIDELMQALNFNSETVPQKSSLEEPDFYKTKIKLCILLHAFRIRAVTIDRVMSYLNAS
B5: IL-12p70 E87A (protein)
chain 1: MIWELKKDVYVVELDWYPDAPGEMVVLTCDTPEEDGITWTLDQSSEVLGSGKTLTIQVKEFGDAGQYTCHKGGEVLSHSLLLLHKKADGIWSTDILKDQKEPKNKTFLRCEAKNYSGRFTCWWLTTISTDLTFSVKSSRGSSDPQGVTCGAATLSAERVRGDNKEYEYSVECQEDSACPAAEESLPIEVMVDAVHKLKYENYTSSFFIRDIIKPDPPKNLQLKPLKNSRQVEVSWEYPDTWSTPHSYFSLTFSVQVQGKSKREKKDRVFTDKTSATVICRKNASISVRAQDRYYSSSWSEWASVPCSGGGSHHHHHH
chain 2: MRNLPVATPDPGMFPSLHHSQNLLRAVSNMLQKARQTLEFYPCTSEEIDHEDITKDKTSTVEACLPLELTKNESCLNSRETSFITNGSSLASRKTSFMMALCLSSIYEDLKMYQVEFKTMNAKLLMDPKRQIFLDQNMLAVIDELMQALNFNSETVPQKSSLEEPDFYKTKIKLCILLHAFRIRAVTIDRVMSYLNAS
B6: IL-12p70 D42A (protein)
chain 1: MIWELKKDVYVVELDWYPDAPGEMVVLTCDTPEEDGITWTLAQSSEVLGSGKTLTIQVKEFGDAGQYTCHKGGEVLSHSLLLLHKKEDGIWSTDILKDQKEPKNKTFLRCEAKNYSGRFTCWWLTTISTDLTFSVKSSRGSSDPQGVTCGAATLSAERVRGDNKEYEYSVECQEDSACPAAEESLPIEVMVDAVHKLKYENYTSSFFIRDIIKPDPPKNLQLKPLKNSRQVEVSWEYPDTWSTPHSYFSLTFSVQVQGKSKREKKDRVFTDKTSATVICRKNASISVRAQDRYYSSSWSEWASVPCSGGGSHHHHHH
chain 2: MRNLPVATPDPGMFPSLHHSQNLLRAVSNMLQKARQTLEFYPCTSEEIDHEDITKDKTSTVEACLPLELTKNESCLNSRETSFITNGSSLASRKTSFMMALCLSSIYEDLKMYQVEFKTMNAKLLMDPKRQIFLDQNMLAVIDELMQALNFNSETVPQKSSLEEPDFYKTKIKLCILLHAFRIRAVTIDRVMSYLNAS
B7: IL-12p70 E87K (protein)
chain 1: MIWELKKDVYVVELDWYPDAPGEMVVLTCDTPEEDGITWTLDQSSEVLGSGKTLTIQVKEFGDAGQYTCHKGGEVLSHSLLLLHKKKDGIWSTDILKDQKEPKNKTFLRCEAKNYSGRFTCWWLTTISTDLTFSVKSSRGSSDPQGVTCGAATLSAERVRGDNKEYEYSVECQEDSACPAAEESLPIEVMVDAVHKLKYENYTSSFFIRDIIKPDPPKNLQLKPLKNSRQVEVSWEYPDTWSTPHSYFSLTFSVQVQGKSKREKKDRVFTDKTSATVICRKNASISVRAQDRYYSSSWSEWASVPCSGGGSHHHHHH
chain 2: MRNLPVATPDPGMFPSLHHSQNLLRAVSNMLQKARQTLEFYPCTSEEIDHEDITKDKTSTVEACLPLELTKNESCLNSRETSFITNGSSLASRKTSFMMALCLSSIYEDLKMYQVEFKTMNAKLLMDPKRQIFLDQNMLAVIDELMQALNFNSETVPQKSSLEEPDFYKTKIKLCILLHAFRIRAVTIDRVMSYLNAS
B8: IL-12p70 I278Y (protein)
chain 1: MIWELKKDVYVVELDWYPDAPGEMVVLTCDTPEEDGITWTLDQSSEVLGSGKTLTIQVKEFGDAGQYTCHKGGEVLSHSLLLLHKKEDGIWSTDILKDQKEPKNKTFLRCEAKNYSGRFTCWWLTTISTDLTFSVKSSRGSSDPQGVTCGAATLSAERVRGDNKEYEYSVECQEDSACPAAEESLPIEVMVDAVHKLKYENYTSSFFIRDIIKPDPPKNLQLKPLKNSRQVEVSWEYPDTWSTPHSYFSLTFSVQVQGKSKREKKDRVFTDKTSATVYCRKNASISVRAQDRYYSSSWSEWASVPCSGGGSHHHHHH
chain 2: MRNLPVATPDPGMFPSLHHSQNLLRAVSNMLQKARQTLEFYPCTSEEIDHEDITKDKTSTVEACLPLELTKNESCLNSRETSFITNGSSLASRKTSFMMALCLSSIYEDLKMYQVEFKTMNAKLLMDPKRQIFLDQNMLAVIDELMQALNFNSETVPQKSSLEEPDFYKTKIKLCILLHAFRIRAVTIDRVMSYLNAS
B9: IL-12p70 S45A (protein)
chain 1: MIWELKKDVYVVELDWYPDAPGEMVVLTCDTPEEDGITWTLDQSAEVLGSGKTLTIQVKEFGDAGQYTCHKGGEVLSHSLLLLHKKEDGIWSTDILKDQKEPKNKTFLRCEAKNYSGRFTCWWLTTISTDLTFSVKSSRGSSDPQGVTCGAATLSAERVRGDNKEYEYSVECQEDSACPAAEESLPIEVMVDAVHKLKYENYTSSFFIRDIIKPDPPKNLQLKPLKNSRQVEVSWEYPDTWSTPHSYFSLTFSVQVQGKSKREKKDRVFTDKTSATVICRKNASISVRAQDRYYSSSWSEWASVPCSGGGSHHHHHH
chain 2: MRNLPVATPDPGMFPSLHHSQNLLRAVSNMLQKARQTLEFYPCTSEEIDHEDITKDKTSTVEACLPLELTKNESCLNSRETSFITNGSSLASRKTSFMMALCLSSIYEDLKMYQVEFKTMNAKLLMDPKRQIFLDQNMLAVIDELMQALNFNSETVPQKSSLEEPDFYKTKIKLCILLHAFRIRAVTIDRVMSYLNAS
B10: IL-12p70 Y17A (protein)
chain 1: MIWELKKDVYVVELDWAPDAPGEMVVLTCDTPEEDGITWTLDQSSEVLGSGKTLTIQVKEFGDAGQYTCHKGGEVLSHSLLLLHKKEDGIWSTDILKDQKEPKNKTFLRCEAKNYSGRFTCWWLTTISTDLTFSVKSSRGSSDPQGVTCGAATLSAERVRGDNKEYEYSVECQEDSACPAAEESLPIEVMVDAVHKLKYENYTSSFFIRDIIKPDPPKNLQLKPLKNSRQVEVSWEYPDTWSTPHSYFSLTFSVQVQGKSKREKKDRVFTDKTSATVICRKNASISVRAQDRYYSSSWSEWASVPCSGGGSHHHHHH
chain 2: MRNLPVATPDPGMFPSLHHSQNLLRAVSNMLQKARQTLEFYPCTSEEIDHEDITKDKTSTVEACLPLELTKNESCLNSRETSFITNGSSLASRKTSFMMALCLSSIYEDLKMYQVEFKTMNAKLLMDPKRQIFLDQNMLAVIDELMQALNFNSETVPQKSSLEEPDFYKTKIKLCILLHAFRIRAVTIDRVMSYLNAS
B11: IL-12p70 E46A (protein)
chain 1: MIWELKKDVYVVELDWYPDAPGEMVVLTCDTPEEDGITWTLDQSSAVLGSGKTLTIQVKEFGDAGQYTCHKGGEVLSHSLLLLHKKEDGIWSTDILKDQKEPKNKTFLRCEAKNYSGRFTCWWLTTISTDLTFSVKSSRGSSDPQGVTCGAATLSAERVRGDNKEYEYSVECQEDSACPAAEESLPIEVMVDAVHKLKYENYTSSFFIRDIIKPDPPKNLQLKPLKNSRQVEVSWEYPDTWSTPHSYFSLTFSVQVQGKSKREKKDRVFTDKTSATVICRKNASISVRAQDRYYSSSWSEWASVPCSGGGSHHHHHH
chain 2: MRNLPVATPDPGMFPSLHHSQNLLRAVSNMLQKARQTLEFYPCTSEEIDHEDITKDKTSTVEACLPLELTKNESCLNSRETSFITNGSSLASRKTSFMMALCLSSIYEDLKMYQVEFKTMNAKLLMDPKRQIFLDQNMLAVIDELMQALNFNSETVPQKSSLEEPDFYKTKIKLCILLHAFRIRAVTIDRVMSYLNAS

Molecular target: IL-12RB1-hFc (human, UniProt P42701)
Experiment: SPR, 25C

Binder	Kd
B1	0.05 nM
B2	0.03 nM
B3	0.07 nM
B4	0.05 nM
B5	0.04 nM
B6	0.07 nM
B7	0.11 nM
B8	0.04 nM
B9	0.04 nM
B10	0.07 nM
B11	0.06 nM
